Where two headings read alike, the source gives them in different places. Marks after values point to notes of the source that are not given here.
What was measured:
[1] = Body weight of mice given 5-Fu; type: in vivo
[2] = test system: BALB/c mice injected with 5-Fu; test: Blood cell counts in mice given 5-Fu (reduction of bone marrow suppression); type: in vivo
[3] = Pharmacokinetics study of intravenous injection of matrine or oxymatrine with addition of geranium oil (HPLC peak areas); details: with addition of geranium oil versus compound alone
[4] = test system: white blood cells; details: taken orally; previously published animal experiments and clinical trials; cited from earlier work
[5] = in vivo, iv
[6] = Day 10, 5-Fu 135 mg/kg IP single dose only
[7] = Day 14, 5-Fu 135 mg/kg IP single dose only
[8] = Day 10, 135 μg/mouse G-CSF and 5-Fu
[9] = Day 14, 135 μg/mouse G-CSF and 5-Fu

O=c1[nH]cc(F)c(=O)[nH]1 [5-Fu, 5-Fluorouracil, reference compound]
weight of mice ([1]; Day 0, 5-Fu only group, in g): 22.0 ± 0.93 | weight of mice ([1]; Day 10, 5-Fu only group): 22.3 ± 1.53 g | weight of mice ([1]; Day 14, 5-Fu only group, in g): 23.5 ± 0.78 | weight of mice ([1]; Day -2, 5-Fu only group, in g): 20.7 ± 0.90 | GR (granulocytes) count [2, 6]: 0.25 ± 0.050 10^3/μl | LY (lymphocytes) count [2, 6]: 3.66 ± 0.648 10^3/μl | MO (monocytes) count [2, 6]: 0.25 ± 0.046 10^3/μl | PLT (platelets) count [2, 6]: 2828 ± 632.4 10^3/μl | RBC (erythrocytes) count [2, 6]: 7.86 ± 0.171 10^6/μl | WBC (total leukocytes) count [2, 6]: 4.17±0.677 10^3/μl | GR (granulocytes) count [2, 7]: 1.65 ± 0.756 10^3/μl | LY (lymphocytes) count [2, 7]: 5.75 ± 0.880 10^3/μl | MO (monocytes) count [2, 7]: 0.59 ± 0.316 10^3/μl | PLT (platelets) count [2, 7]: 2219 ± 750.2 10^3/μl | RBC (erythrocytes) count [2, 7]: 8.09 ± 0.331 10^6/μl | WBC (total leukocytes) count [2, 7]: 7.98 ± 1.575 10^3/μl

O=C1CCC[C@@H]2[C@H]3CCCN4CCC[C@@H](CN12)[C@@H]34 [matrine]
absorption and metabolism of the compound (changes in HPLC peak areas over time) [3]: increase the absorption and metabolism

O=C1CCC[C@@H]2[C@H]3CCC[N+]4([O-])CCC[C@@H](CN12)[C@@H]34 (stereo partly shown) [oxymatrine]
effect on increasing white blood cells [4]: does not show any effect on increasing white blood cells | absorption and metabolism of the compound (changes in HPLC peak areas over time) [5]: increase the absorption and metabolism

B1: G-CSF/5-Fu: granulocyte colony-stimulating factor, comparison treatment given with 5-Fu (protein, UniProt P09919 31-207, looked up)
Granulocyte …: TPLGPASSLPQSFLLKCLEQVRKIQGDGAALQEKLVSECATYKLCHPEELVLLGHSLGIPWAPLSSCPSQALQLAGCLSQLHSGLFLYQGLLQALEGISPELGPTLDTLQLDVADFATTIWQQMEELGMAPALQPTQGAMPAFASAFQRRAGGVLVASHLQSFLEVSYRVLRHLAQP
weight of mice ([1]; Day 0, G-CSF and 5-Fu, in g): 22.0 ± 1.84 | weight of mice ([1]; Day 14, G-CSF and 5-Fu, in g): 24.0 ± 1.64 | weight of mice ([1]; Day -2, G-CSF and 5-Fu, in g): 20.5 ± 1.76 | GR (granulocytes) count [2, 8]: 0.71 ± 0.268** 10^3/μl | LY (lymphocytes) count [2, 8]: 5.01 ± 1.372* 10^3/μl | MO (monocytes) count [2, 8]: 0.38 ± 0.141* 10^3/μl | PLT (platelets) count [2, 8]: 2303 ± 491.7 10^3/μl | RBC (erythrocytes) count [2, 8]: 7.82 ± 0.424 10^6/μl | WBC (total leukocytes) count [2, 8]: 5.46±2.338 10^3/μl | bone marrow suppression effect (WBC) relative to that of 5-Fu only [2, 8]: 51% | suppression effect with respect to granulocytes relative to 5-Fu only [2, 8]: 54% | suppression effect with respect to lymphocytes relative to 5-Fu only [2, 8]: 18% | suppression effect with respect to monocytes relative to 5-Fu only [2, 8]: 7% | WBC (total leukocytes) count ([2]; Day 10, 135 μg/mouse G-CSF and 5-Fu, listed as C-GSF/5-Fu): 5.46 ± 2.338 10^3/μl | GR (granulocytes) count [2, 9]: 1.64 ± 0.405 10^3/μl | LY (lymphocytes) count [2, 9]: 6.12 ± 1.164 10^3/μl | MO (monocytes) count [2, 9]: 0.58 ± 0.266 10^3/μl | PLT (platelets) count [2, 9]: 2105 ± 378.1 10^3/μl | RBC (erythrocytes) count [2, 9]: 8.02 ± 0.340 10^6/μl | WBC (total leukocytes) count [2, 9]: 8.34 ± 1.454 10^3/μl | total leukocyte count and lymphocyte count (only these) versus 5-Fu only [2, 9]: continued to increase to a higher level than that of mice treated with 5-Fu only
